Results published in publication PMC9352680, “A comprehensive thermodynamic model for RNA binding by the Saccharomyces cerevisiae Pumilio protein PUF4”.

T1: PUF4 RNA-binding domain (Saccharomyces cerevisiae, UniProt P25339 537-888)
T1 sequence: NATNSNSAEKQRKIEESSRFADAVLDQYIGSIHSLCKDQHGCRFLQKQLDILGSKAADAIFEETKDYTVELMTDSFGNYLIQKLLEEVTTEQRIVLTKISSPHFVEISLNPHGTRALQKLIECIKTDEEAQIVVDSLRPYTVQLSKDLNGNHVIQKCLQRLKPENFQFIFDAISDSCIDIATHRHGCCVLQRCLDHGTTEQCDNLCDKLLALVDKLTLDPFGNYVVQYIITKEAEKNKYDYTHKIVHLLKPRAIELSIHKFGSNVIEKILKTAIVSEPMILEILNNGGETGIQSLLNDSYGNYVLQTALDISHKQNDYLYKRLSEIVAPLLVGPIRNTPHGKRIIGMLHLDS


Target: T1, PUF4 RNA-binding domain
Test: Mg; RNA-MaP; 20 mM Na-HEPES pH 7.4, 30 mM KOAc, 0.75 mM MgCl2, 0.1% Tween-20, 5% glycerol, 0.1 mg/mL BSA, 2 mM DTT; 25 C; 0.0125-409.6 nM protein
Details: tags: N-His6-TEV cleaved; C-SNAP kept, Cy3B-labelled; label: tethered on chip by stalled RNA polymerase

Binder	Kd
UCUCUUUCUGUAUAUACGUCUCUU (ssRNA) [Id_ii_S1_P3E.2_K3.1_C3.2_[C-2T]_[T-1C]_H3.1_A3.1_F3.1_T3.2_[T9C]_[A10G]]	17.9 nM
UCUCUUACUGUAUAUACAUCUCUU (ssRNA) [Id_ii_S1_P3E.2_K3.1_C3.2_[C-2A]_[T-1C]_H3.1_A3.1_F3.1_T3.2_[T9C]]	22.8 nM
UCUCUUGUUGUAUAUAAAUCUCUU (ssRNA) [Id_ii_S1_P3E.2_K3.1_C3.2_[C-2G]_H3.1_A3.1_F3.1_T3.2_[T9A]]	8.84 nM
UCUCUUUAUGUAUAUAGCUCUCUU (ssRNA) [Id_ii_S1_P3E.2_K3.1_C3.2_[C-2T]_[T-1A]_H3.1_A3.1_F3.1_T3.2_[T9G]_[A10C]]	6.81 nM
UCUCUUACUGUAUAUACUUCUCUU (ssRNA) [Id_ii_S1_P3E.2_K3.1_C3.2_[C-2A]_[T-1C]_H3.1_A3.1_F3.1_T3.2_[T9C]_[A10T]]	15 nM
UCUCUUUAAAUAUUAUCUCUU (ssRNA) [Ib_S1_P4E.1_K4.1_C4.1_H4.1_[G2A]_[T3A]_A4.1_F4.1_T4.1]	> 2300 nM
UCUCUUACUGUAUAUACCUCUCUU (ssRNA) [Id_ii_S1_P3E.2_K3.1_C3.2_[C-2A]_[T-1C]_H3.1_A3.1_F3.1_T3.2_[T9C]_[A10C]]	11.9 nM
UCUCUUUGUGUAUAUAUGUCUCUU (ssRNA) [Id_ii_S1_P3E.2_K3.1_C3.2_[C-2T]_[T-1G]_H3.1_A3.1_F3.1_T3.2_[A10G]]	8.9 nM
UCUCUUAGUGUAUAUAUUUCUCUU (ssRNA) [Id_ii_S1_P3E.2_K3.1_C3.2_[C-2A]_[T-1G]_H3.1_A3.1_F3.1_T3.2_[A10T]]	10 nM
UCUCUUUUUGUAUAUAAAUCUCUU (ssRNA) [Id_ii_S1_P3E.2_K3.1_C3.2_[C-2T]_H3.1_A3.1_F3.1_T3.2_[T9A]]	10.5 nM
UCUCUUUCUGUAUAUAACUCUCUU (ssRNA) [Id_ii_S1_P3E.2_K3.1_C3.2_[C-2T]_[T-1C]_H3.1_A3.1_F3.1_T3.2_[T9A]_[A10C]]	5.55 nM
UCUCUUUUUGUAUAUAUAUCUCUU (ssRNA) [Id_ii_S1_P3E.2_K3.1_C3.2_[C-2T]_H3.1_A3.1_F3.1_T3.2]	4.57 nM
UCUCUUAGUGUAUAUAUGUCUCUU (ssRNA) [Id_ii_S1_P3E.2_K3.1_C3.2_[C-2A]_[T-1G]_H3.1_A3.1_F3.1_T3.2_[A10G]]	11 nM
UCUCUUUUUGUAUAUAAGUCUCUU (ssRNA) [Id_ii_S1_P3E.2_K3.1_C3.2_[C-2T]_H3.1_A3.1_F3.1_T3.2_[T9A]_[A10G]]	11.6 nM
UCUCUUUGUGUAUAUAUUUCUCUU (ssRNA) [Id_ii_S1_P3E.2_K3.1_C3.2_[C-2T]_[T-1G]_H3.1_A3.1_F3.1_T3.2_[A10T]]	8.9 nM
UCUCUUUAUGUAUAUAUCUCUCUU (ssRNA) [Id_ii_S1_P3E.2_K3.1_C3.2_[C-2T]_[T-1A]_H3.1_A3.1_F3.1_T3.2_[A10C]]	9.65 nM
UCUCUUGUUGUAUAUAUCUCUCUU (ssRNA) [Id_ii_S1_P3E.2_K3.1_C3.2_[C-2G]_H3.1_A3.1_F3.1_T3.2_[A10C]]	8.36 nM
UCUCUUUCUCUAUUAUCUCUU (ssRNA) [Ib_S1_P4E.1_K4.1_C4.1_H4.1_[G2C]_[A4C]_A4.1_F4.1_T4.1]	> 2300 nM
UCUCUUUCUGUAUAUAUCUCUCUU (ssRNA) [Id_ii_S1_P3E.2_K3.1_C3.2_[C-2T]_[T-1C]_H3.1_A3.1_F3.1_T3.2_[A10C]]	5.38 nM
UCUCUUUUUGUAUAUAAUUCUCUU (ssRNA) [Id_ii_S1_P3E.2_K3.1_C3.2_[C-2T]_H3.1_A3.1_F3.1_T3.2_[T9A]_[A10T]]	8.27 nM

Binder	Kd
UCUCUUUAUGUAUAUAUGUCUCUU (ssRNA) [Id_ii_S1_P3E.2_K3.1_C3.2_[C-2T]_[T-1A]_H3.1_A3.1_F3.1_T3.2_[A10G]]	9.53 nM
UCUCUUUUUGUAUAUAGGUCUCUU (ssRNA) [Id_ii_S1_P3E.2_K3.1_C3.2_[C-2T]_H3.1_A3.1_F3.1_T3.2_[T9G]_[A10G]]	10.7 nM
UCUCUUUCUGUAUAUAGUUCUCUU (ssRNA) [Id_ii_S1_P3E.2_K3.1_C3.2_[C-2T]_[T-1C]_H3.1_A3.1_F3.1_T3.2_[T9G]_[A10T]]	3.7 nM
UCUCUUUAUGUAUAUACUUCUCUU (ssRNA) [Id_ii_S1_P3E.2_K3.1_C3.2_[C-2T]_[T-1A]_H3.1_A3.1_F3.1_T3.2_[T9C]_[A10T]]	15.1 nM
UCUCUUAGUGUAUAUAGUUCUCUU (ssRNA) [Id_ii_S1_P3E.2_K3.1_C3.2_[C-2A]_[T-1G]_H3.1_A3.1_F3.1_T3.2_[T9G]_[A10T]]	6.52 nM
UCUCUUUGUGUAUAUAGUUCUCUU (ssRNA) [Id_ii_S1_P3E.2_K3.1_C3.2_[C-2T]_[T-1G]_H3.1_A3.1_F3.1_T3.2_[T9G]_[A10T]]	6.29 nM
UCUCUUUUCAUAUUAUCUCUU (ssRNA) [Ib_S1_P4E.1_K4.1_C4.1_H4.1_[G2T]_[T3C]_A4.1_F4.1_T4.1]	> 2300 nM
UCUCUUUAUGUAUAUACCUCUCUU (ssRNA) [Id_ii_S1_P3E.2_K3.1_C3.2_[C-2T]_[T-1A]_H3.1_A3.1_F3.1_T3.2_[T9C]_[A10C]]	15.5 nM
UCUCUUUUUGUAUAUAACUCUCUU (ssRNA) [Id_ii_S1_P3E.2_K3.1_C3.2_[C-2T]_H3.1_A3.1_F3.1_T3.2_[T9A]_[A10C]]	9.6 nM
UCUCUUUUUGUAUAUACUUCUCUU (ssRNA) [Id_ii_S1_P3E.2_K3.1_C3.2_[C-2T]_H3.1_A3.1_F3.1_T3.2_[T9C]_[A10T]]	10.2 nM
UCUCUUUUUGUAUAUAGUUCUCUU (ssRNA) [Id_ii_S1_P3E.2_K3.1_C3.2_[C-2T]_H3.1_A3.1_F3.1_T3.2_[T9G]_[A10T]]	4.16 nM
UCUCUUUGUGUAUAUAAUUCUCUU (ssRNA) [Id_ii_S1_P3E.2_K3.1_C3.2_[C-2T]_[T-1G]_H3.1_A3.1_F3.1_T3.2_[T9A]_[A10T]]	9.46 nM
UCUCUUACUGUAUAUAGCUCUCUU (ssRNA) [Id_ii_S1_P3E.2_K3.1_C3.2_[C-2A]_[T-1C]_H3.1_A3.1_F3.1_T3.2_[T9G]_[A10C]]	9.36 nM
UCUCUUUUUGUAUAUAUCUCUCUU (ssRNA) [Id_ii_S1_P3E.2_K3.1_C3.2_[C-2T]_H3.1_A3.1_F3.1_T3.2_[A10C]]	7.26 nM
UCUCUUUCUGUAUAUAGCUCUCUU (ssRNA) [Id_ii_S1_P3E.2_K3.1_C3.2_[C-2T]_[T-1C]_H3.1_A3.1_F3.1_T3.2_[T9G]_[A10C]]	3.8 nM
UCUCUUUCUGUAUAUAAGUCUCUU (ssRNA) [Id_ii_S1_P3E.2_K3.1_C3.2_[C-2T]_[T-1C]_H3.1_A3.1_F3.1_T3.2_[T9A]_[A10G]]	6.84 nM
UCUCUUGUUGUAUAUAUGUCUCUU (ssRNA) [Id_ii_S1_P3E.2_K3.1_C3.2_[C-2G]_H3.1_A3.1_F3.1_T3.2_[A10G]]	8.99 nM
UCUCUUUCUGUAUAUACUUCUCUU (ssRNA) [Id_ii_S1_P3E.2_K3.1_C3.2_[C-2T]_[T-1C]_H3.1_A3.1_F3.1_T3.2_[T9C]_[A10T]]	9.31 nM
UCUCUUUCUGUAUAUAAUUCUCUU (ssRNA) [Id_ii_S1_P3E.2_K3.1_C3.2_[C-2T]_[T-1C]_H3.1_A3.1_F3.1_T3.2_[T9A]_[A10T]]	4.37 nM
UCUCUUUGUGUAUAUAUCUCUCUU (ssRNA) [Id_ii_S1_P3E.2_K3.1_C3.2_[C-2T]_[T-1G]_H3.1_A3.1_F3.1_T3.2_[A10C]]	7.14 nM

Binder	Kd
UCUCUUAGUGUAUAUAAUUCUCUU (ssRNA) [Id_ii_S1_P3E.2_K3.1_C3.2_[C-2A]_[T-1G]_H3.1_A3.1_F3.1_T3.2_[T9A]_[A10T]]	10.1 nM
UCUCUUUUUGUAUAUAGCUCUCUU (ssRNA) [Id_ii_S1_P3E.2_K3.1_C3.2_[C-2T]_H3.1_A3.1_F3.1_T3.2_[T9G]_[A10C]]	5.32 nM
UCUCUUUAUGUAUAUAGUUCUCUU (ssRNA) [Id_ii_S1_P3E.2_K3.1_C3.2_[C-2T]_[T-1A]_H3.1_A3.1_F3.1_T3.2_[T9G]_[A10T]]	6.42 nM
UCUCUUACUGUAUAUACGUCUCUU (ssRNA) [Id_ii_S1_P3E.2_K3.1_C3.2_[C-2A]_[T-1C]_H3.1_A3.1_F3.1_T3.2_[T9C]_[A10G]]	45.4 nM
UCUCUUUUUGUAUAUAUUUCUCUU (ssRNA) [Id_ii_S1_P3E.2_K3.1_C3.2_[C-2T]_H3.1_A3.1_F3.1_T3.2_[A10T]]	6.67 nM
UCUCUUGUUGUAUAUAUUUCUCUU (ssRNA) [Id_ii_S1_P3E.2_K3.1_C3.2_[C-2G]_H3.1_A3.1_F3.1_T3.2_[A10T]]	8 nM
UCUCUUAGUGUAUAUAUCUCUCUU (ssRNA) [Id_ii_S1_P3E.2_K3.1_C3.2_[C-2A]_[T-1G]_H3.1_A3.1_F3.1_T3.2_[A10C]]	13.4 nM
UCUCUUGUUGUAUAUAUAUCUCUU (ssRNA) [Id_ii_S1_P3E.2_K3.1_C3.2_[C-2G]_H3.1_A3.1_F3.1_T3.2]	5.16 nM
UCUCUUAGUGUAUAUAAAUCUCUU (ssRNA) [Id_ii_S1_P3E.2_K3.1_C3.2_[C-2A]_[T-1G]_H3.1_A3.1_F3.1_T3.2_[T9A]]	14.1 nM
UCUCUUUCUGUAUUAUCUCUU (ssRNA) [Ib_S1_P4E.1_K4.1_C4.1_H4.1_[G2C]_[A4G]_A4.1_F4.1_T4.1]	25.1 nM
UCUCUUUCUGUAUAUAAAUCUCUU (ssRNA) [Id_ii_S1_P3E.2_K3.1_C3.2_[C-2T]_[T-1C]_H3.1_A3.1_F3.1_T3.2_[T9A]]	8.49 nM
UCUCUUUCUGUAUAUAUUUCUCUU (ssRNA) [Id_ii_S1_P3E.2_K3.1_C3.2_[C-2T]_[T-1C]_H3.1_A3.1_F3.1_T3.2_[A10T]]	5.64 nM
UCUCUUUGUGUAUAUACCUCUCUU (ssRNA) [Id_ii_S1_P3E.2_K3.1_C3.2_[C-2T]_[T-1G]_H3.1_A3.1_F3.1_T3.2_[T9C]_[A10C]]	23.4 nM
UCUCUUUCUGUAUAUACAUCUCUU (ssRNA) [Id_ii_S1_P3E.2_K3.1_C3.2_[C-2T]_[T-1C]_H3.1_A3.1_F3.1_T3.2_[T9C]]	23 nM
UCUCUUUAUGUAUAUAACUCUCUU (ssRNA) [Id_ii_S1_P3E.2_K3.1_C3.2_[C-2T]_[T-1A]_H3.1_A3.1_F3.1_T3.2_[T9A]_[A10C]]	13 nM
UCUCUUAGUUUAUUAUCUCUU (ssRNA) [Ib_S1_P4E.1_K4.1_C4.1_H4.1_[T1A]_[A4T]_A4.1_F4.1_T4.1]	> 2300 nM
UCUCUUUAUGUAUAUAUUUCUCUU (ssRNA) [Id_ii_S1_P3E.2_K3.1_C3.2_[C-2T]_[T-1A]_H3.1_A3.1_F3.1_T3.2_[A10T]]	9.19 nM
UCUCUUUUUGUAUAUACCUCUCUU (ssRNA) [Id_ii_S1_P3E.2_K3.1_C3.2_[C-2T]_H3.1_A3.1_F3.1_T3.2_[T9C]_[A10C]]	12.1 nM
